# Laboratory results reported in patent publication US20200264182A1, “METHOD FOR DETECTING PROSTATE CANCER” (J-OIL MILLS, INC., priority 2017, published 2020).
# Assays:
# [1] = molecular target: serum fucosylated PSA (prostate specific antigen) (human) (UniProt P07288); assay: sandwich ELISA, anti-PSA antibody capture, biotin-lectin detection, pH 7.4; serum of Healthy 6
# [2] = molecular target: serum fucosylated PSA (prostate specific antigen) (human) (UniProt P07288); assay: sandwich ELISA, anti-PSA antibody capture, biotin-lectin detection, pH 7.4; sera of the prostate cancer patient group (n=9)
# [3] = molecular target: serum fucosylated PSA (prostate specific antigen) (human) (UniProt P07288); assay: sandwich ELISA, anti-PSA antibody capture, biotin-lectin detection, pH 7.4; serum of Prostate cancer 8 (GS 8)
# [4] = molecular target: serum fucosylated PSA (prostate specific antigen) (human) (UniProt P07288); assay: sandwich ELISA, anti-PSA antibody capture, biotin-lectin detection, pH 7.4; serum of Prostate cancer 1 (GS 4)
# [5] = molecular target: serum fucosylated PSA (prostate specific antigen) (human) (UniProt P07288); assay: sandwich ELISA, anti-PSA antibody capture, biotin-lectin detection, pH 7.4; serum of Prostate cancer 2 (GS 5)
# [6] = molecular target: serum fucosylated PSA (prostate specific antigen) (human) (UniProt P07288); assay: sandwich ELISA, anti-PSA antibody capture, biotin-lectin detection, pH 7.4; serum of Healthy 2
# [7] = molecular target: serum fucosylated PSA (prostate specific antigen) (human) (UniProt P07288); assay: sandwich ELISA, anti-PSA antibody capture, biotin-lectin detection, pH 7.4; sera of subgroup Negative (GS5 or less), n=2
# [8] = molecular target: serum fucosylated PSA (prostate specific antigen) (human) (UniProt P07288); assay: sandwich ELISA, anti-PSA antibody capture, biotin-lectin detection, pH 7.4; serum of Prostate cancer 6 (GS 7)
# [9] = molecular target: serum fucosylated PSA (prostate specific antigen) (human) (UniProt P07288); assay: sandwich ELISA, anti-PSA antibody capture, biotin-lectin detection, pH 7.4; serum of Prostate cancer 4 (GS 6)
# [10] = molecular target: serum fucosylated PSA (prostate specific antigen) (human) (UniProt P07288); assay: sandwich ELISA, anti-PSA antibody capture, biotin-lectin detection, pH 7.4; serum of Healthy 7
# [11] = molecular target: serum fucosylated PSA (prostate specific antigen) (human) (UniProt P07288); assay: sandwich ELISA, anti-PSA antibody capture, biotin-lectin detection, pH 7.4; serum of Healthy 5
# [12] = molecular target: serum fucosylated PSA (prostate specific antigen) (human) (UniProt P07288); assay: sandwich ELISA, anti-PSA antibody capture, biotin-lectin detection, pH 7.4; sera of subgroup GS8 or more, n=3
# [13] = molecular target: serum fucosylated PSA (prostate specific antigen) (human) (UniProt P07288); assay: sandwich ELISA, anti-PSA antibody capture, biotin-lectin detection, pH 7.4; serum of Prostate cancer 9 (GS 8)
# [14] = molecular target: serum fucosylated PSA (prostate specific antigen) (human) (UniProt P07288); assay: sandwich ELISA, anti-PSA antibody capture, biotin-lectin detection, pH 7.4; serum of Prostate cancer 3 (GS 6)
# [15] = molecular target: serum fucosylated PSA (prostate specific antigen) (human) (UniProt P07288); assay: sandwich ELISA, anti-PSA antibody capture, biotin-lectin detection, pH 7.4; sera of subgroup GS7, n=2
# [16] = molecular target: serum fucosylated PSA (prostate specific antigen) (human) (UniProt P07288); assay: sandwich ELISA, anti-PSA antibody capture, biotin-lectin detection, pH 7.4; sera of subgroup GS6, n=2
# [17] = molecular target: serum fucosylated PSA (prostate specific antigen) (human) (UniProt P07288); assay: sandwich ELISA, anti-PSA antibody capture, biotin-lectin detection, pH 7.4; serum of Healthy 4
# [18] = molecular target: serum fucosylated PSA (prostate specific antigen) (human) (UniProt P07288); assay: sandwich ELISA, anti-PSA antibody capture, biotin-lectin detection, pH 7.4; serum of Prostate cancer 7 (GS 8)
# [19] = molecular target: serum fucosylated PSA (prostate specific antigen) (human) (UniProt P07288); assay: sandwich ELISA, anti-PSA antibody capture, biotin-lectin detection, pH 7.4; serum of Prostate cancer 5 (GS 7)
# [20] = molecular target: serum fucosylated PSA (prostate specific antigen) (human) (UniProt P07288); assay: sandwich ELISA, anti-PSA antibody capture, biotin-lectin detection, pH 7.4; serum of Healthy 1
# [21] = molecular target: serum fucosylated PSA (prostate specific antigen) (human) (UniProt P07288); assay: sandwich ELISA, anti-PSA antibody capture, biotin-lectin detection, pH 7.4; serum of Healthy 3
# [22] = molecular target: serum fucosylated PSA (prostate specific antigen) (human) (UniProt P07288); assay: sandwich ELISA, anti-PSA antibody capture, biotin-lectin detection, pH 7.4; sera of the healthy person group (n=7)
substance,measurement,setting,value
"Aleuria aurantia lectin (AAL), biotin-labeled (from UniProt P18891 2-313)",AAL reaction value,[1],1190 U/mL
same,AAL reaction value (average value),[2],1020 U/mL
same,AAL reaction value (median value),[2],1010 U/mL
same,AAL reaction value,[3],1010 U/mL
same,AAL reaction value,[4],831 U/mL
same,AAL reaction value,[5],1030 U/mL
same,AAL reaction value,[6],855 U/mL
same,AAL reaction value (mean value),[7],932 U/mL
same,AAL reaction value (median value),[7],932 U/mL
same,AAL reaction value,[8],962 U/mL
same,AAL reaction value,[9],926 U/mL
same,AAL reaction value,[10],1030 U/mL
same,AAL reaction value,[11],32.3 U/mL
same,AAL reaction value (mean value),[12],1070 U/mL
same,AAL reaction value (median value),[12],1010 U/mL
same,AAL reaction value,[13],988 U/mL
same,AAL reaction value,[14],1150 U/mL
same,AAL reaction value (mean value),[15],993 U/mL
same,AAL reaction value (median value),[15],993 U/mL
same,AAL reaction value (mean value),[16],1040 U/mL
same,AAL reaction value (median value),[16],1040 U/mL
same,AAL reaction value,[17],115 U/mL
same,AAL reaction value,[18],1210 U/mL
same,AAL reaction value,[19],1020 U/mL
same,AAL reaction value,[20],1100 U/mL
same,AAL reaction value,[21],1060 U/mL
same,AAL reaction value (average value),[22],769 U/mL
same,AAL reaction value (median value),[22],1030 U/mL
